Data published in patent US5145783A, “Glyphosate-tolerant 5-endolpyruvyl-3-phosphoshikimate synthase” (Monsanto Company, priority 1990, dated 1992).

Molecular target: T1, wild-type EPSP synthase of tomato (Solanum lycopersicum, UniProt P10748)
T1 construct: ATG translational initiation codon at the site predicted to be the start of the mature enzyme for in vitro expression in E. Coli; initiator methionine (ATG in an engineered NcoI site) (N); made in house; host or cells: E. coli SR481 (aroA mutant) harboring pMON9719, desalted cell extract
Assay: EPSP synthase activity assay, extracts of E. coli SR481 harboring pMON9719
Format: biochemical
Conditions: cells containing pMON9719, no glyphosate
Method: E. coli SR481 cells harboring pMON9719 or pMON9729 were grown under conditions which induce the expression of the RecA promoter. The cells were lysed and the extracts were assayed for EPSP synthase activity.
Specifically, the bacterial cell paste was washed twice with 0.9% saline, suspended in buffer (100 mM Tris-HCl, 5 mM dithiothreitol, 1 mM EDTA, 10% glycerol and 1 mM benzamidine HCl) passed twice through the French Pressure Cell at 1000 psi. The cell abstract was separated from the cells by centrifuging at 15,000×gravity for 10 mins. at 5° C. It was desalted using Sephadex G-50 (Pharmacia, Piscataway, N.J.). The desalted extract was assayed for EPSP synthase activity as follows:
To an assay mix (40 μl) containing shikimate-3-phosphate (2 mM), ^14 C-phosphoenolpyruvate (1 mM, 1.2 mCi/mmol), ammonium molybdate (0.1 mM), potassium fluoride (5 mM), in 50 mM HEPES-KOH, pH 7, was added 10 μl of the extract and incubated at 25° C. for 2 mins. […] The radioactivity of the eluent was monitored using a Radiometric Flo-One Beta Instrument. […] The EPSP synthase activity was determined by measurement of the conversion of ^14 C-PEP to ^14 […], both of which are resolved under the above conditions of chromatography. The protein content of the extract was determined by the method of Bradford (Biorad Labs, Calif.). […]

B1: pMON9719: wild-type EPSP synthase of tomato expressed in E. coli SR481 under the recA promoter, cell extract (protein, UniProt P10748 77-520, looked up)
3-phosphoshikimate …: KPHEIVLXPIKDISGTVKLPGSKSLSNRILLLAALSEGRTVVDNLLSSDDIHYMLGALKTLGLHVEDDNENQRAIVEGCGGQFPVGKKSEEEIQLFLGNAGTAMRPLTAAVTVAGGHSRYVLDGVPRMRERPIGDLVDGLKQLGAEVDCSLGTNCPPVRIVSKGGLPGGKVKLSGSISSQYLTALLMAAPLALGDVEIEIIDKLISVPYVEMTLKLMERFGVFVEHSSGWDRFLVKGGQKYKSPGKAFVEGDASSASYFLAGAAVTGGTVTVEGCGTSSLQGDVKFAEVLEKMGAEVTWTENSVTVKGPPRNSSGMKHLRAIDVNMNKMPDVAMTLAVVALFADGPTTIRDVASWRVKETERMIAICTELRKLGATVVEGSDYCIITPPEKLNVTEIDTYDDHRMAMAFSLAACADVPVTIKNPGCTRKTFPDYFEVLQKYSKH
modifications: X: residue not identified in the source
notes: wild-type EPSP synthase of tomato expressed in E. coli SR481 under the recA promoter, cell extract
EPSP synthase activity (specific activity of the extract): about 1600 nanomoles of EPSP synthase formed/minute/mg protein
